Test results from patent publication US20220242963A1, “B-CELL ACTIVATING CD73 ANTIBODIES” (CORVUS PHARMACEUTICALS, INC., priority 2018, published 2022).

How the values were obtained:
inflammatory cytokines = assay: Phase 1/1B clinical trial: serum cytokine levels; type: in vivo, human; settings: patients following treatment
Protocol: Immunomodulatory activity of CPI-006 was evaluated in patients administered CPI-006. […] Further, T cell activation was evaluated upon treatment with various dosages of the monotherapy CPI-006 or a combination therapy of CPI-006 and ciforadenant. Once a T cell clone is activated, the clone can expand and produce clonal copies of the original clone. […] The results further affirm CPI-006 is an immunomodulator of CD73 positive cells.

B cells (CD19+CD3−) = assay: B cell activation in healthy donor PBMC, flow cytometry of surface markers / phospho ERK; type: cell-based, human
Description: With reference to FIGS. 2A-2E, each group of four bars from left to right represent data for: untreated donors, donors treated with human IgG1 isotype control, donors treated with BCR stimulation, and donors treated with CPI-006. The experiments for FIGS. 2A-2E are based on healthy donor PBMC treated overnight with flow cytometry analysis of surface markers on B cells (CD19^POS CD3^NEG). These lymphocyte markers are consistent with activation of B cells as well as other antigen presenting cell populations. […] The bar graph legend from top to bottom is representative of the data bars from left to right. […] For FIG. 2H the bar graph legend from top to bottom is representative of the data bars from left to right. For FIG. 2I the legend from top to bottom is representative of the data from top to bottom. […] For each group of four bars, the legend from top to bottom are representative of the bars from left to right.
PBMC were isolated from healthy donors and incubated with bead-bound anti-IgM, CPI-006 (10 μg/mL), or human IgG1 isotype control (10 μg/mL) overnight. Flow cytometry analysis was performed with gating on B cells (CD19+CD3−) and mean fluorescence intensity (MFI) was reported for staining with antibodies to the cell surface markers CD69, CD83, and CD25, as shown in FIGS. 2A-2C. PBMC were isolated from healthy donors and incubated with CPI-006, CPI-016, human IgG1 isotype control, and anti-human CD73 antibody, clone AD2 (available from Bio-Rad Antibodies) over a range of concentrations from about 0.1 μg/mL to more than 10 μg/mL. Flow cytometry analysis was performed with gating on B cells (CD19+CD3−) and mean fluorescence intensity (MFI) is reported for antibody staining of CD69, as shown in FIG. 2F. PBMC were isolated from healthy donors and incubated overnight with bead-bound anti-IgM or CPI-006 (1 μg/mL)+/−BTK inhibitor, ibrutinib (100 nM). Flow cytometry analysis was performed with gating on B cells (CD19+CD3−) and mean fluorescence intensity (MFI) is reported for antibody staining of CD69 and CD83, as shown in FIG. 2G. PBMC were isolated from healthy donors and incubated overnight with APCP (1 μM) or CPI-006 (1 μg/mL)+/−NECA (5′-N-ethylcarboxamidoadenosine). Flow cytometry analysis was performed with gating on B cells (CD19+CD3−) and mean fluorescence intensity (MFI) is reported for antibody staining of CD69, as shown in FIGS. 2H-2I. PBMC were isolated from healthy donors and incubated with the indicated treatments for 15 minutes. Flow cytometry analysis was performed with gating on the indicated cell populations and staining of phospho ERK was evaluated, as shown in FIG. 2J.

CD73 = target: T1, CD73 (Homo sapiens, UniProt P21589); assay: Occupancy and inhibition of CD73 in a tumor biopsy of a treated colorectal cancer patient; type: in vivo; settings: 12 mg/kg, retroperitoneal lesion at trough pre-dose 3, FIG. 5
T1 construct: endogenous in cells; host or cells: Whole blood of cancer patients (CD73+ CD8 T cells)
T1 sequence (P21589 27-549): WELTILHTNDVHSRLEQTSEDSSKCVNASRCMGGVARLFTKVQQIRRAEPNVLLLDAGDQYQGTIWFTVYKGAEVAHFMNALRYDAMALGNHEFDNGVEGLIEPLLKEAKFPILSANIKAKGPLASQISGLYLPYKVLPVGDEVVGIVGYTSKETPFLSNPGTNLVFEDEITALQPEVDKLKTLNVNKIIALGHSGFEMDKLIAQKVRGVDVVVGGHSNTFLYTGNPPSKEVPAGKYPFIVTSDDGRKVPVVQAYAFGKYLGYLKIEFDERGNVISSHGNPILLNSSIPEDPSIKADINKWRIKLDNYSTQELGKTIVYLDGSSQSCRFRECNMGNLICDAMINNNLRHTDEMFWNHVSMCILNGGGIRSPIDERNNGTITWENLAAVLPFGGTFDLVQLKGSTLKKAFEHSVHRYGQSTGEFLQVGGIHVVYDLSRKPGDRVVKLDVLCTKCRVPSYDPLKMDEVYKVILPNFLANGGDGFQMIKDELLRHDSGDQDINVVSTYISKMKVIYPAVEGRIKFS
Protocol: The tumor biopsy was of a retroperitoneal lesion obtained at trough pre-dose 3.
A tumor biopsy taken from a colorectal cancer patient treated with CPI-006 was evaluated for inhibition of CD73 enzymatic activity.

[1] = Phase 1/1B clinical trial: serum levels of free CPI-006 by ELISA; type: in vivo, human
Protocol: FIGS. 3A-3D show the pharmacokinetics/pharmacodynamics and CD73 receptor occupancy of CPI-006 after a first infusion in human patients. […] The dotted line marks one-hundred percent occupancy CD73 receptor occupancy.
With reference to Table 1, serum samples were collected from patients treated with CPI-006 alone (i.e., monotherapy) and levels of free CPI-006 were measured by ELISA, as shown in FIG. 3A. Whole blood samples from patients treated with CPI-006 alone were fixed and receptor occupancy was measured by flow cytometry gating on CD73+CD8 T cells, as shown in FIG. 3B. As illustrated in FIGS. 3A-3D, receptor exposure to CPI-006 increases and clearance decreases with increasing doses of CPI-006, and CIP-006 is detectable for 21 days after administration of a single dose of 6 mg/kg or higher. […] Other results from the study are described below and in Table 4. BLQ is below limit of quantification. TBD is to be determined.

[2] = with increasing doses of CPI-006, first infusion, FIGS. 3A-3D

B1: CPI-006: humanized CD73 antibody, wherein the light chain is SEQ ID NO:8 and the heavy chain is SEQ ID NO:7; IgG1 Fcγ receptor-deficient (antibody, V domains shown)
VH: QVQLVQSGAEVEKPGASVKVSCKASGYTFTSYWITWVRQAPGQGLEWMGDIYPGSGNTNYNEKFKTRVTITADKSTSTAYMELSSLRSEDTAVYYCAKEGGLTTEDYALDYWGQGTLVTV
VL: EIVLTQSPATLSLSPGERATLSCRASKNVSTSGYSYMHWYQQKPGQAPRLLIYLASNLESGIPPRFSGSGYGTDFTLTINNIESEDAAYYFCQHSRELPFTFGQGTKVEIK
Inflammatory cytokines; FIG. 8A
  cytokines including TNF-α, TNF-β, MIP-1α, MIP-1β, IL-6, IL-10, IL-8, IP-10, MCP-1, MCP-2, IL-1Ra, GRO-α, MIP-3α, TNF-RII, IL-7, MMP-9: rapid induction
Inflammatory cytokines; FIG. 8B
  levels of CRP and SAA: subsequent increase
B cells (CD19+CD3−); CPI-006 1 μg/mL, APCP 1 μM, overnight, FIGS. 2H-2I
  B cell activation (CD69, CD83) +/− NECA, versus APCP: independent of adenosine
B cells (CD19+CD3−); CPI-006 1 μg/mL, ibrutinib 100 nM, overnight, FIG. 2G
  B cell activation (CD69, CD83) +/− BTK inhibitor ibrutinib: via BTK
B cells (CD19+CD3−); PBMC overnight, CPI-006 10 μg/mL, gated on B cells, FIG. 2A
  expression of B cell activation marker CD69: induces expression
B cells (CD19+CD3−); PBMC overnight, CPI-006 10 μg/mL, gated on B cells, FIG. 2B
  expression of B cell activation marker CD83: induces expression
B cells (CD19+CD3−); PBMC overnight, CPI-006 10 μg/mL, gated on B cells, FIG. 2C
  expression of B cell activation marker CD25: induces expression
B cells (CD19+CD3−); PBMC overnight, gated on B cells, FIG. 2D
  antigen-presenting cell marker CD86: activates
B cells (CD19+CD3−); PBMC overnight, gated on B cells, FIG. 2E
  antigen-presenting cell marker MHC-II: activates
B cells (CD19+CD3−); PBMC, 15 minutes, FIG. 2J
  phospho-ERK signaling in B cells versus T cells: to a greater extent than in CD4+ T cells or CD8+ T cells
B cells (CD19+CD3−); about 0.1 μg/mL to more than 10 μg/mL, versus CPI-016, isotype control, AD2, FIG. 2F
  induction of B cell activation (CD69 MFI) compared with other antibodies: unique to CPI-006
B cells (CD19+CD3−); human B lymphocytes
  direct B cell activation: directly activates human B lymphocytes
CD73
  CD73 enzymatic activity in tumor biopsy: inhibit CD73 enzymatic activity
  occupancy of CD73 in tumor biopsy: binds and saturates CD73
[1]; 1 mg/kg, patients 1-3, BLQ is below limit of quantification
  Serum CPI-006 at C1D8: BLQ
[1]; 6 mg/kg, patient 7 (Colorectal)
  Serum CPI-006 at C1D8: 23.60 µg/mL
[1]; clinical data, 1, 3, and 6 mg/kg
  PK dose dependence: dose proportional
[1]; single dose of 6 mg/kg or higher
  time detectable in serum after administration: 21 days
[1]; [2]
  clearance: decreases
  exposure to CPI-006: increases
